Assays:
[1] = Double-blind crossover gluten challenge: 25 g D-xylose 5-hour urine excretion test; type: in vivo, human (Celiac Sprue patients)
From the text: It was first established that a low-dose, short-term (5-10 g/day for 14 days) gluten oral supplement induces fat and carbohydrate malabsorption when given to asymptomatic Celiac Sprue patients on an otherwise gluten free diet. This protocol was modified to examine the effect of gluten pre-treated with pepsin, trypsin and chymotrypsin (PTC-Gluten) as compared to PTC-Gluten additionally treated with PEP (PTC-Gluten+PEP). In this study, Celiac patients maintaining a gluten-free diet ingested a supplement of 5 g/day gluten as PTC-Gluten or PTC-Gluten+PEP in an orange-lemon juice vehicle for 14 days in a double-blind crossover manner. A 6-week washout interval between individual arms of the crossover trial allowed patients to recover completely from the effects, if any, of the test material in the first arm.
Subjects and protocols: This study was approved by the Institutional Review Board of the Palo Alto Medical Foundation in Palo Alto, Calif., and all participants in the study were counseled regarding risks and signed an informed consent document. 22 patients were recruited who were in symptomatic remission on a gluten-free diet. Two patients dropped out of the study, one near the end of the first stage and the other prior to the second stage. The 20 patients who completed the study included 7 men and […] aged 21 to 78 (mean age 49). The time since diagnosis for the 20 patients ranged from 3 months to 18 years (mean 6 years). Patients provided copies of their initial small-intestinal biopsy pathology report and laboratory reports documenting a history of at least one positive celiac antibody (gliadin, endomysial or transglutaminase) to verify a diagnosis of Celiac Sprue. They also completed an entry questionnaire inquiring about their medical history, adherence to the gluten-free diet, and current symptoms. The format of the study was a double-blinded crossover in which each patient consumed either a low daily dose of a gluten supplement (5 g; equivalent of one-half slice of bread) that was predigested with pepsin, trypsin and chymotrypsin alone (PTC-Gluten) or PTC-Gluten treated with prolyl endopeptidase (PTC-Gluten+PEP). The PEP in the latter orange juice mixture was completely inactivated through a heating process following proteolysis of the gliadin peptides. […]
Studied variables: During each stage of the study, patients completed a daily questionnaire inquiring about symptoms and their adherence to the gluten-free diet. […] The serum anti-gliadin IgA antibodies and anti-tissue transglutaminase IgA and IgG antibodies were measured by an enzyme linked immunosorbent assay (ELISA) kit (INOVA Diagnostics, Inc., San Diego, Calif.). […] Total serum IgA levels were determined by an Integra instrument (Roche) (normal <81 mg/dl). […]

[2] = Double-blind crossover gluten challenge: daily symptom questionnaire; type: in vivo, human (Celiac Sprue patients); conditions: PEP Stage, 20 patients
From the text: Subjects and protocols: This study was approved by the Institutional Review Board of the Palo Alto Medical Foundation in Palo Alto, Calif., and all participants in the study were counseled regarding risks and signed an informed consent document. 22 patients were recruited who were in symptomatic remission on a gluten-free diet. Two patients dropped out of the study, one near the end of the first stage and the other prior to the second stage. The 20 patients who completed the study included 7 men and […] aged 21 to 78 (mean age 49). The time since diagnosis for the 20 patients ranged from 3 months to 18 years (mean 6 years). […] The serum anti-gliadin IgA antibodies and anti-tissue transglutaminase IgA and IgG antibodies were measured by an enzyme linked immunosorbent assay (ELISA) kit (INOVA Diagnostics, Inc., San Diego, Calif.). […] Total serum IgA levels were determined by an Integra instrument (Roche) (normal <81 mg/dl). […] The 25 g D-xylose 5-hour urine excretion test and the 72-hour quantitative fecal fat test were measured at baseline and on Day 15. […] For the 72 h quantitative fecal fat test, patients were instructed to consume a diet containing 80-100 g fat per day during the collection. The fecal fat excretion was determined by a gravimetric method. […]

[3] = All patients with full xylose data (N = 14)
[4] = Subgroup with normal (>4 gm/5 hrs) Pre-stage Xylose (N = 10)

B1: PEP: prolyl endopeptidase; Examples 1-2: from Flavobacterium meningosepticum (US Biological); Example 11: source not stated (protein, UniProt P27028 21-705, looked up)
Prolyl endopeptidase: QNSNVLKYPETKKVSHTDTYFGTQVSDPYRWLEDDRAEDTKAWVQQEVKFTQDYLAQIPFRDQLKKQLMDIWNYEKISAPFKKGKYTYFSKNDGLQAQSVLYRKDAAGKTEVFLDPNKFSEKGTTSLASVSFNKKGTLVAYSISEGGSDWNKIIILDAETKKQLDETLLDVKFSGISWLGDEGFFYSSYDKPKEGSVLSGMTDKHKVYFHKLGTKQSQDELIIGGDKFPRRYIGAYVTDDQRYLVVSAANATNGNELYIKDLKNKTDFIPIITGFDSNVNVADTDGDTLYLFTDKDAPNKRLVKTTIQNPKAETWKDVIAETSEPLEINTGGGYFFATYMKDAIDQVKQYDKNGKLVRAIKLPGSGNASGFGGEKTEKDLYYSFTNYITPPTIFKYNVTTGNSEVYQKPKVKFNPENYVSEQVFYTSSDGTKIPMMISYKKGLKKDGKNPTILYSYGGFNISLQPAFSVVNAIWMENGGIYAVPNIRGGGEYGKKWHDAGTKMQKKNVFNDFIAAGEYLQKNGYTSKEYMALSGRSNGGLLVGATMTMRPDLAKVAFPGVGVLDMLRYNKFTAGAGWAYDYGTAEDSKEMFEYLKSYSPVHNVKAGTCYPSTMVITSDHDDRVVPAHSFKFGSELQAKQSCKNPILIRIETNAGHGAGRSTEQVVAENADLLSFALYEMGIKSLK
PEP Effective (patients / patients with positive gluten challenge), urine xylose [1, 3]: 4/8
PEP Effective, urine xylose [1, 3]: 50%
PEP Effective (patients / patients with positive gluten challenge), urine xylose [1, 4]: 3/5
PEP Effective, urine xylose [1, 4]: 60%
average Total Stage Symptom Score (sum of the 14 daily symptom scores) [2]: 23 (range 4 to 82)

— patent US8796201B2 (The Board of Trustees of the Leland Stanford Junior …, priority 2002, dated 2014)
